System: MS2 coat protein
Assay: apparent KD of MS2 coat protein; higher = weaker reporter binding
Details: Eterna round: R107
Outline: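 The buffer was 100 mM Tris-HCl pH 7.5 with 80 mM KCl and 4 mM MgCl2, used without or with constant ligand. In it, RNA switches transcribed on-chip from Illumina sequencing clusters were titrated with SNAP-549-labelled MS2 coat protein in twofold steps from 0.7 or 1.5 nM to 3 µM. Apparent KD for each design is the median of its normalised cluster binding-curve fits.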

[1] = input ligand: theophylline 20 uM
[2] = input ligand: theophylline 2 mM
[3] = input ligand: tryptophan 2.4 mM

GGAUUACGAAAGUAGUCCAUCAAGUUCGAGCGAGGACCGGUACGGCCGCCACUCGAACAUGAGGAUCACCCAUGUAGCGAAAGCU [Tryptophan A 21]
apparent KD of MS2 coat protein (input ligand: arginine 13.2 mM): 116 nM
apparent KD of MS2 coat protein [1]: 304 nM
apparent KD of MS2 coat protein [2]: 371 nM

GGCACAUAGUCGGCCGCCACUAGAAUAAGAUGGAAUAACAUGAGGAUCACCCAUGUAAAAGGGACUAGGACCGGGACUAUGUGCC [Goat]
apparent KD of MS2 coat protein (input ligand: arginine 13.2 mM): 12.9 nM
apparent KD of MS2 coat protein [1]: 15.7 nM
apparent KD of MS2 coat protein [2]: 14.3 nM

GGCACCAGGAGAAGGAGCGUGAAGACAUGAGGAUCACCCAUGUAGAGGCCCGUACCGGGUUCGCAGGUAGGUCGCUCCUGGUGCC [#1 Same State - Arginine B Attempt #14 (HarryS)]
apparent KD of MS2 coat protein (input ligand: arginine 13.2 mM): 19.2 nM
apparent KD of MS2 coat protein (input ligand: none): 23 nM
apparent KD of MS2 coat protein [1]: 38.1 nM
apparent KD of MS2 coat protein [2]: 27.1 nM
apparent KD of MS2 coat protein [3]: 24.2 nM

GGCCCUGCGAGCGCUCGCAGGGCCGCGGAUACCAGCGAGGUCCAUCGCCCUUGGCAGCCGAACAUGAGGAUCACCCAUGUCGGUA [#1 Same State - Theophylline A Attempt #13 (HarryS)]
apparent KD of MS2 coat protein (input ligand: arginine 13.2 mM): 7.87 nM
apparent KD of MS2 coat protein (input ligand: none): 9.84 nM
apparent KD of MS2 coat protein [1]: 12.9 nM
apparent KD of MS2 coat protein [2]: 18.3 nM
apparent KD of MS2 coat protein [3]: 9.44 nM

GGCCGAAACGGCCAAGGUAUCAUGACCGAUACCAGCGAAGAAGAACGCCCUUGGCAGCGGACAUGAGGAUCACCCAUGUAAAGAA
apparent KD of MS2 coat protein (input ligand: arginine 13.2 mM): 24.5 nM
apparent KD of MS2 coat protein (input ligand: none): 16 nM
apparent KD of MS2 coat protein [1]: 38.3 nM
apparent KD of MS2 coat protein [2]: 124 nM
apparent KD of MS2 coat protein [3]: 13.9 nM

GGCUAGGCUAGCGAUACCAGCAACCAACAUGAUCUGAGGAUCACCCAGGUAGUUGGACGUUGCCCUUGGCAGCGCUAGCCUAGCC [SSThB NP+V+V2 #12 Diff Apt, Same Structure]
apparent KD of MS2 coat protein (input ligand: arginine 13.2 mM): 15.4 nM
apparent KD of MS2 coat protein (input ligand: none): 14.3 nM
apparent KD of MS2 coat protein [1]: 16 nM
apparent KD of MS2 coat protein [2]: 12.2 nM
apparent KD of MS2 coat protein [3]: 15.5 nM

GGCUAGUGCAUCGAUACCAGCUACAUGAGGAUCACCCAUGUAGGAAGGGUGGCACUCGAUAGCCCUUGGCAGCGAACACCUCCGG [Cebebion]
apparent KD of MS2 coat protein (input ligand: arginine 13.2 mM): 53 nM
apparent KD of MS2 coat protein (input ligand: none): 18.9 nM
apparent KD of MS2 coat protein [1]: 31.2 nM
apparent KD of MS2 coat protein [2]: 28.1 nM
apparent KD of MS2 coat protein [3]: 16.3 nM

GGCUAUACUACGGCCGCCACUGAACAUGAGGAUCACCCAUGUAAUGUUCAGAUUUUUUUUUUUUACAGGACCGGGUAGAAUUGCC [Tryptophan B 3]
apparent KD of MS2 coat protein (input ligand: arginine 13.2 mM): 82.6 nM
apparent KD of MS2 coat protein [1]: 220 nM
apparent KD of MS2 coat protein [2]: 299 nM

GGGAUAUCCCGAAGGAGCGCGAGAUGCUGUGCUGCAUUCCUCACAUGAGGAUCACCCAUGUCGCAGGUAGGUCGCGGGAUAUCCC [#16 Exclusion - Arginine B]
apparent KD of MS2 coat protein (input ligand: arginine 13.2 mM): 151 nM
apparent KD of MS2 coat protein (input ligand: none): 450 nM
apparent KD of MS2 coat protein [1]: 452 nM
apparent KD of MS2 coat protein [2]: 553 nM
apparent KD of MS2 coat protein [3]: 485 nM

GGGCCCGGGCGCGAGCCCGGGCCCAUUGAUACCAGUGAAGAAGAGCGCCCUUGGCAGCGAAUCCUAACAUGAGGAUCACCCAUGU [5.P]
apparent KD of MS2 coat protein (input ligand: arginine 13.2 mM): 63.2 nM
apparent KD of MS2 coat protein (input ligand: none): 43.6 nM
apparent KD of MS2 coat protein [1]: 74.3 nM
apparent KD of MS2 coat protein [2]: 77.3 nM
apparent KD of MS2 coat protein [3]: 38.8 nM

GGGCCCGGGCGCGAGCCCGGGCCCAUUGAUACCAGUGAUAGAGAGCGCCCUUGGCAGCGAAUCCUAACAUGAGGAUCACCCAUGU [5.K]
apparent KD of MS2 coat protein (input ligand: arginine 13.2 mM): 37.5 nM
apparent KD of MS2 coat protein (input ligand: none): 46.3 nM
apparent KD of MS2 coat protein [1]: 95.2 nM
apparent KD of MS2 coat protein [2]: 83.9 nM
apparent KD of MS2 coat protein [3]: 56.6 nM

GGGCCCGGGCGCGAGCCCGGGCCCAUUGAUACCAGUGAUAUAUGACGCCCUUGGCAGCGAAUCCUAACAUGAGGAUCACCCAUGU [5.H]
apparent KD of MS2 coat protein (input ligand: arginine 13.2 mM): 22.8 nM
apparent KD of MS2 coat protein (input ligand: none): 54.7 nM
apparent KD of MS2 coat protein [1]: 58.9 nM
apparent KD of MS2 coat protein [2]: 81.6 nM
apparent KD of MS2 coat protein [3]: 37.1 nM

GGGCGCGUGGACCGGCGUGCUCCGCUCCGUCGAGGACCGGUACGGCCGCCACUCGACAUGAGGAUCACCCAUGUGUGAGCUCGCG [#1 Exclusion - Tryptophan A Attempt #16 (HarryS)]
apparent KD of MS2 coat protein (input ligand: arginine 13.2 mM): 22.5 nM
apparent KD of MS2 coat protein [1]: 63.6 nM
apparent KD of MS2 coat protein [2]: 80 nM

GGGUAAGAUCCGGAUACCAGCGAACAUGAGGAUCACCCAUGUGACCUAAGAUAGGCUAAACGCCCUUGGCAGCCGAGAUAGCGUU [Same State Theophylline B GF 6]
apparent KD of MS2 coat protein (input ligand: arginine 13.2 mM): 27.2 nM
apparent KD of MS2 coat protein (input ligand: none): 41.3 nM
apparent KD of MS2 coat protein [1]: 34.2 nM
apparent KD of MS2 coat protein [2]: 30.7 nM
apparent KD of MS2 coat protein [3]: 39.5 nM

GGGUACAUCGCGGCCGCCACUCAUGUAAAUUCAUGAGGAUCACCCAUGACGAUGGAGACAUCGGAGAGGACCGGGUGAUGUACCG
apparent KD of MS2 coat protein (input ligand: arginine 13.2 mM): 26.5 nM
apparent KD of MS2 coat protein (input ligand: none): 16.8 nM
apparent KD of MS2 coat protein [1]: 23 nM
apparent KD of MS2 coat protein [2]: 20.8 nM
apparent KD of MS2 coat protein [3]: 16.8 nM

GGGUACAUCGCGGCCGCCACUGAUGUAAAUACAUGAGGAUCACCCAUGUCGAUGGAGACAUCGGCCAGGACCGGGUGAUGUACCG
apparent KD of MS2 coat protein (input ligand: arginine 13.2 mM): 13.1 nM
apparent KD of MS2 coat protein (input ligand: none): 14 nM
apparent KD of MS2 coat protein [1]: 24.1 nM
apparent KD of MS2 coat protein [2]: 16.5 nM
apparent KD of MS2 coat protein [3]: 11.6 nM

GGGUACAUCGCGGCCGCCACUUAUGUAAAUACAUGAGGAUCACCCAUGUCGAUGGAGACAUCGGAGAGGACCGGGUGAUGUACCG
apparent KD of MS2 coat protein (input ligand: arginine 13.2 mM): 28.2 nM
apparent KD of MS2 coat protein [1]: 41.6 nM
apparent KD of MS2 coat protein [2]: 48 nM

GGGUGGUAGGCGGCCGCCACUGAUUUUUAUAUAUAUAUGACAUGAGGAUCACCCAUGUAGAUAUGCAGGACCGGGCCUGUUGUUU [aaaN]
apparent KD of MS2 coat protein (input ligand: arginine 13.2 mM): 22.4 nM
apparent KD of MS2 coat protein (input ligand: none): 22.2 nM
apparent KD of MS2 coat protein [1]: 28.2 nM
apparent KD of MS2 coat protein [2]: 22 nM
apparent KD of MS2 coat protein [3]: 28.3 nM
